# Assay results: patent US20130253037
# B1: 6-His-LIMK2 (recombinant, E. coli) (protein)
# chain: MSALAGEDVWRCPGCGDHIAPSQIWYRTVNETWHGSCFRCSECQDSLTNWYYEKDGKLYCPKDYWGKFGEFCHGCSLLMTGPFMVAGEFKYHPECFACMSCKVIIEDGDAYALVQHATLYCGKCHNEVVLAPMFERLSTESVQEQLPYSVTLISMPATTEGRRGFSVSVESACSNYATTVQVKEVNRMHISPNNRNAIHPGDRILEINGTPVRTLRVEEVEDAISQTSQTLQLLIEHDPVSQRLDQLRLEARLAPHMQNAGHPHALSTLDTKENLEGTLRRRSLRRSNSISKSPGPSSPKEPLLFSRDISRSESLRCSSSYSQQIFRPCDLIHGEVLGKGFFGQAIKVTHKATGKVMVMKELIRCDEETQKTFLTEVKVMRSLDHPNVLKFIGVLYKDKKLNLLTEYIEGGTLKDFLRSMDPFPWQQKVRFAKGIASGMAYLHSMCIIHRDLNSHNCLIKLDKTVVVADFGLSRLIVEERKRAPMEKATTKKRTLRKNDRKKRYTVVGNPYWMAPEMLNGKSYDETVDIFSFGIVLCEIIGQVYADPDCLPRTLDFGLNVKLFWEKFVPTDCPPAFFPLAAICCRLEPESRPAFSKLEDSFEALSLYLGELGIPLPAELEELDHTVSMQYGLTRDSPP
# Key:
# [1] = molecular target: 6-His-Aurora-A (recombinant, wild type, from Sf9 insect cells)
protein,measurement,setting,value
B1,"in vitro kinase assay, Aurora A (without TPX2) as putative LIMK2 substrate",[1],"when LIMK2 was incubated with Aurora A (without TPX2), Aurora A did not get phosphorylated"
same,"in vitro kinase assay, cofilin phosphorylation with [32P] ATP",6-His-cofilin,LIMK2 efficiently phosphorylated cofilin as expected (lane 3)
